Test results reported in patent publication US20030148956A1 (PROCTER AND GAMBLE, published 2003).
Ends that are not written are not given here.

T1: corticotropin releasing factor 2 receptor
T1 sequence (Q13324 whole entry, species assumed, looked up): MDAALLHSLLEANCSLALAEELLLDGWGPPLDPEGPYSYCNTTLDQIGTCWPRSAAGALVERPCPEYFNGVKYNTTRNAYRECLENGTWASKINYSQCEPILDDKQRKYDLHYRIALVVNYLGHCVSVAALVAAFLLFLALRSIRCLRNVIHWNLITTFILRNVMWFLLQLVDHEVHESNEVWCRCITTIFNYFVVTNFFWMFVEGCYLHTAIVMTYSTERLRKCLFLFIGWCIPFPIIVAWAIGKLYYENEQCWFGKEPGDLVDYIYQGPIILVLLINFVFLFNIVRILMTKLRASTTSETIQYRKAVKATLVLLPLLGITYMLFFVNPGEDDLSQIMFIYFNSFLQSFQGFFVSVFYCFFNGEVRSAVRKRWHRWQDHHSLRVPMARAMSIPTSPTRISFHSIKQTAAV


molecular target: corticotropin releasing factor 1 receptor; assay: cell-based or functional assay

Row | Binder | CRF1R EC50 [nM] | CRF1R Emax % [%]
1 | ZGPPISIDLPHQLLRKMIEIEKQEKEKQQAANNRLLLDTI (C-terminal amide) [SEQ ID NO 212] | 445 | 100
2 | ZGPPISIDLPQWLLRKMIEIEKQEKEKQQAANNRLLLDTI (C-terminal amide) [SEQ ID NO 213] | 1000 | 76
3 | IVLSLDVVIGLLQILLEQARARAAREQATTNARILARV-NH2 [SEQ ID NO 214] | 100 | 4
4 | ZGPPISIDLPYWLLRKMIEIEKQEKEKQQAANNRLLLDTI (C-terminal amide) [SEQ ID NO 215] | 188 | 100
5 | ZGPPISIDLPWWLLRKMIEIEKQEKEKQQAANNRLLLDTI (C-terminal amide) [SEQ ID NO 216] | 49.8 | 98
6 | ZGPPISIDLPFWLLRKMIEIEKQEKEKQQAANNRLLLDTI (C-terminal amide) [SEQ ID NO 217] | 94.7 | 100
7 | ZGPPISIDLPLWLLRKMIEIEKQEKEKQQAANNRLLLDTI (C-terminal amide) [SEQ ID NO 218] | 98.4 | 100
8 | ZGPPISIDLPHFLLRKMIEIEKQEKEKQQAANNRLLLDTI (C-terminal amide) [SEQ ID NO 219] | 80.9 | 100
9 | ZGPPISIDLPYFLLRKMIEIEKQEKEKQQAANNRLLLDTI (C-terminal amide) [SEQ ID NO 220] | 63.6 | 81
10 | ZGPPISIDLPQFLLRKMIEIEKQEKEKQQAANNRLLLDTI (C-terminal amide) [SEQ ID NO 221] | 236 | 100
11 | ZGPPISIDLPAFLLRKMIEIEKQEKEKQQAANNRLLLDTI (C-terminal amide) [SEQ ID NO 222] | 384 | 95
12 | ZGPPISIDLPFFLLRKMIEIEKQEKEKQQAANNRLLLDTI (C-terminal amide) [SEQ ID NO 223] | 48.1 | 81
13 | ZGPPISIDLPQYLLRKMIEIEKQEKEKQQAANNALLLDTI (C-terminal amide) [SEQ ID NO 224] | 1000 | 27

More lines, now with the values ahead:

Row | CRF1R EC50 [nM] | CRF1R Emax % [%] | Binder
14 | 220 | 97 | ZGPPISIDLPYYLLRKMIEIEKQEKEKQQAANNALLLATI (C-terminal amide) [SEQ ID NO 225]
15 | 315 | 95 | ZGPPISIDLPYYLLRKMIEIEKQEKEKQQAANNALLLDTI (C-terminal amide) [SEQ ID NO 226]
16 | 918 | 18 | ZGPPISIDLPQYLLRKMIEIEKQEKEKQQAANNALLLATI (C-terminal amide) [SEQ ID NO 227]
17 | 276 | 100 | ZGPPISIDLPFHLLRKMIEIEKQEKEKQQAANNALLLDTI (C-terminal amide) [SEQ ID NO 228]
18 | 298 | 100 | ZGPPISIDLPFHLLRKMIEIEKQEKEKQQAANNALLLATI (C-terminal amide) [SEQ ID NO 229]
19 | 219 | 100 | ZGPPISIDLPFYLLRKMIEIEKQEKEKQQAANNALLLDTI (C-terminal amide) [SEQ ID NO 230]
20 | 94 | 100 | ZGPPISIDLPFYLLRKMIEIEKQEKEKQQAANNALLLATI (C-terminal amide) [SEQ ID NO 231]
21 | 1000 | 7 | ZGPPISIDLPTYLLRKMIEIEKQEKEKQQAANNALLLDTI (C-terminal amide) [SEQ ID NO 232]
22 | 1000 | 11 | ZGPPISIDLPTYLLRKMIEIEKQEKEKQQAANNALLLATI (C-terminal amide) [SEQ ID NO 233]
23 | 434 | 96 | ZGPPISIDLPLELLRKMIEIEKQEKEKQQAANNALLLATI (C-terminal amide) [SEQ ID NO 234]
24 | 806 | 70 | ZGPPISIDLPLELLRKMIEIEKQEKEKQQAANNALLLDTI (C-terminal amide) [SEQ ID NO 235]
25 | 1000 | 15 | ZGPPISIDLPIYLLRKMIEIEKQEKEKQQAANNALLLDTI (C-terminal amide) [SEQ ID NO 236]
26 | 1000 | 18 | ZGPPISIDLPIYLLRKMIEIEKQEKEKQQAANNALLLATI (C-terminal amide) [SEQ ID NO 237]
27 | 753 | 88 | ZGPPISIDLPLHLLRKMIEIEKQEKEKQQATTNARLLDTV (C-terminal amide) [SEQ ID NO 238]
28 | 587 | 80 | ZGPPISIDLPLHLLRKMIEIEKQEKEKQQATTNARLLDRV (C-terminal amide) [SEQ ID NO 239]
29 | 915 | 80 | ZGPPISIDLPLHLLRKMIEIEKQEKEKQQAANNALLLDTI (C-terminal amide) [SEQ ID NO 240]

molecular target: T1, corticotropin releasing factor 2 …; assay: cell-based or functional assay

Row | Binder | CRF2R EC50 [nM] | CRF2R Emax % [%]
30 | ZGPPISIDLPHQLLRKMIEIEKQEKEKQQAANNRLLLDTI (C-terminal amide) [SEQ ID NO 212] | 21.3 | 100
31 | ZGPPISIDLPQWLLRKMIEIEKQEKEKQQAANNRLLLDTI (C-terminal amide) [SEQ ID NO 213] | 22.3 | 99
32 | IVLSLDVVIGLLQILLEQARARAAREQATTNARILARV-NH2 [SEQ ID NO 214] | 74.3 | 60
33 | ZGPPISIDLPYWLLRKMIEIEKQEKEKQQAANNRLLLDTI (C-terminal amide) [SEQ ID NO 215] | 4 | 100
34 | ZGPPISIDLPWWLLRKMIEIEKQEKEKQQAANNRLLLDTI (C-terminal amide) [SEQ ID NO 216] | 9.9 | 90
35 | ZGPPISIDLPFWLLRKMIEIEKQEKEKQQAANNRLLLDTI (C-terminal amide) [SEQ ID NO 217] | 4.7 | 95
36 | ZGPPISIDLPLWLLRKMIEIEKQEKEKQQAANNRLLLDTI (C-terminal amide) [SEQ ID NO 218] | 4.8 | 96
37 | ZGPPISIDLPHFLLRKMIEIEKQEKEKQQAANNRLLLDTI (C-terminal amide) [SEQ ID NO 219] | 7.8 | 98
38 | ZGPPISIDLPYFLLRKMIEIEKQEKEKQQAANNRLLLDTI (C-terminal amide) [SEQ ID NO 220] | 4.1 | 98
39 | ZGPPISIDLPQFLLRKMIEIEKQEKEKQQAANNRLLLDTI (C-terminal amide) [SEQ ID NO 221] | 8.5 | 100
40 | ZGPPISIDLPAFLLRKMIEIEKQEKEKQQAANNRLLLDTI (C-terminal amide) [SEQ ID NO 222] | 9.4 | 100
41 | ZGPPISIDLPFFLLRKMIEIEKQEKEKQQAANNRLLLDTI (C-terminal amide) [SEQ ID NO 223] | 3 | 92
42 | ZGPPISIDLPQYLLRKMIEIEKQEKEKQQAANNALLLDTI (C-terminal amide) [SEQ ID NO 224] | 26.9 | 100

Results, then the binder that gave them:

Row | CRF2R EC50 [nM] | CRF2R Emax % [%] | Binder
43 | 4.8 | 89 | ZGPPISIDLPYYLLRKMIEIEKQEKEKQQAANNALLLATI (C-terminal amide) [SEQ ID NO 225]
44 | 7.6 | 100 | ZGPPISIDLPYYLLRKMIEIEKQEKEKQQAANNALLLDTI (C-terminal amide) [SEQ ID NO 226]
45 | 33.6 | 95 | ZGPPISIDLPQYLLRKMIEIEKQEKEKQQAANNALLLATI (C-terminal amide) [SEQ ID NO 227]
46 | 7.1 | 100 | ZGPPISIDLPFHLLRKMIEIEKQEKEKQQAANNALLLDTI (C-terminal amide) [SEQ ID NO 228]
47 | 10.3 | 100 | ZGPPISIDLPFHLLRKMIEIEKQEKEKQQAANNALLLATI (C-terminal amide) [SEQ ID NO 229]
48 | 8.1 | 100 | ZGPPISIDLPFYLLRKMIEIEKQEKEKQQAANNALLLDTI (C-terminal amide) [SEQ ID NO 230]
49 | 5.9 | 100 | ZGPPISIDLPFYLLRKMIEIEKQEKEKQQAANNALLLATI (C-terminal amide) [SEQ ID NO 231]
50 | 45.3 | 100 | ZGPPISIDLPTYLLRKMIEIEKQEKEKQQAANNALLLDTI (C-terminal amide) [SEQ ID NO 232]
51 | 46.1 | 95 | ZGPPISIDLPTYLLRKMIEIEKQEKEKQQAANNALLLATI (C-terminal amide) [SEQ ID NO 233]
52 | 20.6 | 100 | ZGPPISIDLPLELLRKMIEIEKQEKEKQQAANNALLLATI (C-terminal amide) [SEQ ID NO 234]
53 | 25.7 | 100 | ZGPPISIDLPLELLRKMIEIEKQEKEKQQAANNALLLDTI (C-terminal amide) [SEQ ID NO 235]
54 | 40.4 | 97 | ZGPPISIDLPIYLLRKMIEIEKQEKEKQQAANNALLLDTI (C-terminal amide) [SEQ ID NO 236]
55 | 22.2 | 93 | ZGPPISIDLPIYLLRKMIEIEKQEKEKQQAANNALLLATI (C-terminal amide) [SEQ ID NO 237]
56 | 16.7 | 100 | ZGPPISIDLPLHLLRKMIEIEKQEKEKQQATTNARLLDTV (C-terminal amide) [SEQ ID NO 238]
57 | 13.2 | 100 | ZGPPISIDLPLHLLRKMIEIEKQEKEKQQATTNARLLDRV (C-terminal amide) [SEQ ID NO 239]
58 | 22 | 100 | ZGPPISIDLPLHLLRKMIEIEKQEKEKQQAANNALLLDTI (C-terminal amide) [SEQ ID NO 240]
